From the Immune Epitope Database (IEDB)

Tests used:
Test in all cases: IEDB peptide-MHC binding, purified MHC/competitive/radioactivity; filed as Kd, often an IC50 or EC50 that approximates it; ≥ and ≤ were set here for values at or beyond the usual limits of such assays
HLA-A*02:02 = target: HLA-A*02:02
HLA-A*02:03 = target: HLA-A*02:03
HLA-A*02:06 = target: HLA-A*02:06
HLA-A*02:01 = target: HLA-A*02:01
HLA-A*68:02 = target: HLA-A*68:02
[1] = source organism: Lassa virus Josiah
[2] = source organism: Pichinde virus strain Munchique
[3] = source organism: Whitewater Arroyo virus strain AV9310135
[4] = source organism: Guanarito virus strain INH-95551

In the case of YLISIFLHL, the Kd (HLA-A*02:02; [1]) is reported as 173 nM, the Kd (HLA-A*02:03; [1]) is reported as 11 nM and the Kd (HLA-A*02:06; [1]) is reported as 10 nM.

YTITVFLHL was tested, and the Kd (HLA-A*02:01; [2]) was 10 nM, the Kd (HLA-A*02:02; [2]) was 128 nM and the Kd (HLA-A*02:03; [2]) was 14800 nM. For the same sequence, the Kd (HLA-A*02:06; [2]) was 7 nM and the Kd (HLA-A*68:02; [2]) was 5 nM.

YVSSIFLHL gave a Kd (HLA-A*02:02; [3]) of at most 1 nM, a Kd (HLA-A*02:03; [3]) of 10 nM and a Kd (HLA-A*02:06; [3]) of 15 nM. It also gave a Kd (HLA-A*68:02; [3]) of at most 1 nM.

GTTSLFLHL was tested, and the Kd (HLA-A*02:01; [4]) was 49 nM, the Kd (HLA-A*02:02; [4]) was 57 nM and the Kd (HLA-A*02:03; [4]) was 750 nM. It also gave a Kd (HLA-A*02:06; [4]) of 5 nM and a Kd (HLA-A*68:02; [4]) of 5 nM.
